Laboratory results taken from patent US6602687B1, “DNA encoding human ciliary neurotrophic factor and method for producing the protein encoded thereby” (Regeneron Pharmaceuticals, Inc., priority 1989, dated 2003).
Positions count from the first letter of the chain named.

Columns and labels:
[1] = test system: dorsal root ganglia and/or dissociated ciliary neurons; assay: Biological activity of modified and truncated CNTF proteins (rapid bacterial extracts); type: cell-based, chick; conditions: soluble protein extracted from induced bacteria hosting each plasmid; compared with full length parental protein
Procedure: Samples for gel electrophoresis were prepared by resuspending cell pellets from 0.5 ml culture OD590=2 in 0.16 ml lysis buffer (100 mM TrisHCl, 10% glycerol, 4% sodium dodecyl sulfate, 1 mM dithiothreitol, 0.5 mg/ml bromophenol blue, pH 6.8) and boiling for 5 minutes.
(§1) Biological activity of recombinant CNTF was assayed on explants of chick embryo dorsal root ganglia (DRG) and dissociated cultures of ciliary ganglion (CG) neurons as described in Lindsay and Rohrer (1985, Devel. Biol 112:30-48). Briefly, DRG were dissected from chick embryos of 10 days incubation (E10) and 5-6 ganglia were explanted in 1 ml of a collagen gel matrix in 35 mm tissue culture dishes. After the gel had set, 1 ml of tissue culture growth medium F14 (Imperial Labs., U.K.) supplemented with 5% heat-inactivated horse serum (GIBCO) was added before adding human CNTF (1-20 l) to a final concentration of 100 pg to 100 ng/ml. CG were dissected from E8 chick embryos and incubated for 30 min in 0.25% trypsin (Worthington) in calcium- and magnesium-free phosphate buffered saline. The ganglia were then washed three times in F14 medium containing 5% horse serum before being dissociated to a single cell suspension by trituration through the bore of a Pasteur pipette. Enrichment for CG neurons was achieved by plating the cell suspension for 3.5 hr in a 60 mm dish, during which non-neuronal cells (fibroblasts and Schwann cells) attached firmly to the plastic while phase-bright neurons remained in suspension. The purified neurons were plated on polyornithine-laminin-coated 35 mm culture dishes at 8,000-10,000 neurons/dish. In explant cultures CNTF activity was determined by assessing the extent of fiber outgrowth in treated cultures compared to controls. Fiber outgrowth was scored on a scale of 0 to 5+, by comparing cultures to photographs of a dose-response of explanted DRG and NGF. In dissociated CG neuron cultures, CNTF activity was determined by counting at 48 hr the percentage of process-bearing neurons in control and CNTF-treated cultures. In all cases results were derived from triplicate cultures.
Biological activity was assayed on dorsal root ganglia and/or dissociated ciliary neurons was determined as described in section 12.1.6. Soluble protein was extracted from induced bacteria hosting each plasmid by the “rapid” protein extraction method described in section 12.1.3.

[2] = test system: E10 rat ciliary ganglion neurons; assay: Survival and neurite outgrowth of ciliary ganglion neurons with E. coli protein extract; type: cell-based
Procedure: (§2) In addition, protein extracts were prepared from the same cells lysed by treatment with lysozyme followed by three cycles of freezing and thawing. […] No such activity could be detected in control extracts from the same host cells carrying the plasmid vector without the rCNTF gene.

[3] = test system: E8 dorsal root ganglion neurons; assay: Survival and neurite outgrowth of dorsal root ganglion neurons / DRG assay with E. coli protein extracts; type: cell-based; conditions: protein extract of E. coli W3110iqF-/rCNTF-C-1; after 24 and 48 hours in vitro
Procedure: as §2
Human CNTF sequence, engineered to lack intron sequences, has been inserted into the pCP93 vector and used to transform competent E. coli.

[4] = test system: E8 chick ciliary ganglion neurons; assay: Survival of dissociated E8 chick ciliary ganglion neurons; type: cell-based; conditions: for lowest concentration at which activity was detectable: dissociated, neuron-enriched E8 chick ciliary ganglion cultures
From the text: Ciliary neurotrophic factor activity may be evaluated using any CNTF-sensitive in vivo or in vitro system known in the art. For example, and not by way of limitation, in vitro systems have been developed which measure CNTF activity by quantitating 24-hour survival of embryonic (E8) chick ciliary ganglion (CG) neurons in monolayer cultures.
For example, ciliary ganglia may be collected from E8 chick embryos, dissociated (yielding approximately 20,000 cells per ganglion) and then diluted in HEBM medium containing 20 percent horse serum as described in Varon et al. (1979, Brain Res. 173:29-45). About fifty microliters of cell suspension containing neurons (2,000 cells) may then be seeded into microliter dishes and putative CNTF activity may be added. Culture plates may then be maintained at 37° C. in 5% CO2 for 24 hours, after which the cultures may be fixed by the addition of 200 μl 2 per cent glutaraldehyde in HEBM medium, and the number of surviving neurons may be determined visually by direct count under phase contrast microscopy.
Chick embryo ciliary ganglion cultures were created and maintained according to the method set forth in (Hughes et al., 1988, Nature 335 : 70-73).
as §1

[5] = test system: chick embryonic spinal motorneurons; assay: Survival of chick embryonic spinal motorneurons in culture; type: cell-based; conditions: recombinant rat CNTF, 5 ng/ml
Procedure: Motorneuron columns were dissected under a stereomicroscope from the lumbar part of the spinal cord of chick embryos on the 6th day of embryonic development and stored in cold calcium and magnesium-free Hanks balanced salt solution supplemented with glucose (4 g/l) (HBSS). The tissues were washed with HBSS and treated with 0.03% trypsin in HBSS at 37° C. for 20 min with gentle shaking, rinsed with cold HBSS and triturated mildly in 3 steps of 8-passage agitation in 1 ml of cold 0.1% soybean trypsin inhibitor (Sigma) in HBSS through a fire-polished siliconized Pasteur pipette. Each supernatant cell suspension was filtered through 50 μm-Nylon mesh, pooled and layered onto 4 ml of cold 6.8% metrizamide (Fluka) in HBSS-25 mM HEPES (pH7.4) in a 12 ml-siliconized conical glass tube. The tube was centrifuged at 400 g for 15 min at 4° C. and the intermediate layer (0.5 ml) was collected into another siliconized tube containing 6.5 ml of cold culture medium (a mixture of glucose (4 g/l)-supplemented Leibovitz's L-15 medium (Gibco), 0.15 M sodium bicarbonate, heat-inactivated and filtered horse serum and penicillin G (10^5 units/ml) at the ratio of 75:15:10:0.1, freshly prepared and buffered with 5% CO2.) After centrifugation at 100×g for 7 min at 4° C., the supernatant was removed and the cells were gently resuspended in culture medium and plated in Greiner 4-well culture dishes (well diameter, 10 mm; C. A. Greiner und Sohne GmbH, Nurtingen, West Germany) at 1000-2000 cells/well. The dishes had been precoated with poly-DL-ornithine (Sigma, 0.5 mg in 0.15 M sodium borate buffer (pH 8.3) overnight at 4° C., rinsed twice with phosphate-buffered saline (PBS) and subsequently coated with laminin (Gibco; 10 μg/ml in the serum-depleted culture medium) and placed in a 5% CO2-incubator until cell plating (5-6 hrs). Cells were incubated at 37° C. in a humidified 5% CO2- and 95% air-incubator. Samples were added one hr after plating and the culture medium changed after 24 hrs and 72 hrs. The initial cell numbers were counted 3 hrs after plating.
In some experiments motor neurons were retrogradely labeled with a fluorescent dye in vivo before cell preparation (U. Dohrman et al., 1986, Dev. Biol. 118:209-221) to identify the motor neuron cell population. A small hole was made in the shell of eggs which had been incubated for 5 days. Small pieces of rhodamine isothiocyanate crystals (Sigma) were inserted at two or three places into each hind limb thigh and the egg hole was sealed with a cellophane tape. The eggs were incubated for another 24 hrs. Some of the operated embryos were then processed for frozen sections after formaldehyde fixation. […] The other embryos were used for cell preparation using the method described above (18.1.1). After 5 hrs in culture cells were rinsed with warm HBSS, fixed with 4% formaldehyde in PBS at room temperature for 20 min, rinsed with PBS and then mounted in glycerol-PBS (1:1) with glass coverslips. Of the total cells approximately 83% were labeled and identified as motorneurons (FIG. 42.) Most of these labeled motorneurons were large cells and the rest were intermediate-size cells. No small cells were labeled. On the other hand, in experiments in which cells were not labeled with a fluorescent dye about 70% of the total cells were large phase-bright cells with round cell somas, about 20% were intermediate-size neurons (most of them may be motorneurons) and about 10% were small immature neurons (they have neuron-like processes with growth cones but have phase-dark semi-flat cell somas). Non-neuronal cells were either not present or accounted for less than 2%. Taken together, one may conclude that at least 83% of the cells are motorneurons while the remainder consists of non-labeled motorneurons, a small number of unidentified intermediate-size neurons and about 10% immature small neurons. […]

B1: pRPN59: hCNTF interrupted after the 185th codon, followed by 10 additional unrelated amino acids (protein, UniProt P26441 1-185, looked up, fragment)
chain: MAFTEHSPLTPHRRDLCSRSIWLARKIRSDLTALTESYVKHQGLNKNINLDSADGMPVASTDQWSELTEAERLQENLQAYRTFHVLLARLLEDQQVHFTPTEGDFHQAIHTLLLQVAAFAYQIEELMILLEYKIPRNEADGMPINVGDGGLFEKKLWGLKVLQELSQWTVRSIHDLRFISSHQTG
modifications: plus 10 unrelated C-terminal residues
biological activity [1]: as active as the full length protein

B2: pRPN108: hCNTF with alanine in place of cysteine at amino acid 17, encoded in plasmid pRPN108 (protein, UniProt P26441 1-200, looked up, variant C17A)
Ciliary neurotrophic factor: MAFTEHSPLTPHRRDLASRSIWLARKIRSDLTALTESYVKHQGLNKNINLDSADGMPVASTDQWSELTEAERLQENLQAYRTFHVLLARLLEDQQVHFTPTEGDFHQAIHTLLLQVAAFAYQIEELMILLEYKIPRNEADGMPINVGDGGLFEKKLWGLKVLQELSQWTVRSIHDLRFISSHQTGIPARGSHYIANNKKM
biological activity [1]: as active as the full length protein

B3: pRPN109: hCNTF with serine in place of cysteine at amino acid 17, encoded in plasmid pRPN109 (protein, UniProt P26441 1-200, looked up, variant C17S)
Ciliary neurotrophic factor: B2 Ciliary neurotrophic factor with A17S
biological activity [1]: as active as the full length protein

B4: pRPN65: rCNTF terminated immediately after the 165th codon (protein, UniProt P20294 1-165, looked up, fragment)
chain: MAFAEQTPLTLHRRDLCSRSIWLARKIRSDLTALMESYVKHQGLNKNINLDSVDGVPVASTDRWSEMTEAERLQENLQAYRTFQGMLTKLLEDQRVHFTPTEGDFHQAIHTLMLQVSAFAYQLEELMVLLEQKIPENEADGMPATVGDGGLFEKKLWGLKVLQEL
biological activity [1]: inactivated

B5: pRPN112: hCNTF interrupted after the 145th codon plus one leucine; lacks 55 carboxyl-terminal residues (protein, UniProt P26441 1-145, looked up, fragment)
chain: MAFTEHSPLTPHRRDLCSRSIWLARKIRSDLTALTESYVKHQGLNKNINLDSADGMPVASTDQWSELTEAERLQENLQAYRTFHVLLARLLEDQQVHFTPTEGDFHQAIHTLLLQVAAFAYQIEELMILLEYKIPRNEADGMPIN
modifications: plus one C-terminal leucine
notes: hCNTF interrupted after the 145th codon plus one leucine; lacks 55 carboxyl-terminal residues
biological activity [1]: inactive

B6: recombinant rat CNTF: rat ciliary neurotrophic factor expressed in E. coli (protein, UniProt P20294 1-200, looked up)
Ciliary neurotrophic factor: MAFAEQTPLTLHRRDLCSRSIWLARKIRSDLTALMESYVKHQGLNKNINLDSVDGVPVASTDRWSEMTEAERLQENLQAYRTFQGMLTKLLEDQRVHFTPTEGDFHQAIHTLMLQVSAFAYQLEELMVLLEQKIPENEADGMPATVGDGGLFEKKLWGLKVLQELSQWTVRSIHDLRVISSHQMGISALESHYGAKDKQM
amount of rCNTF at which maximal activity was seen ([2]; ciliary and dorsal root ganglion neuron cultures): less than 1 nanogram
survival and neurite outgrowth of E10 rat ciliary ganglion neurons ([2]; protein extract of E. coli W3110iqF-/rCNTF-C-1, after 24 and 48 hours in vitro): up to 50%
survival and neurite outgrowth of E8 dorsal root ganglion neurons [3]: approximately 30%
lowest concentration at which activity was detectable [4]: 2 pg/mL
motorneurons alive after 3 days in culture [5]: about 70%
motorneurons alive after 6 days in culture [5]: about 60%

B7: CNTF purified from rat sciatic nerve: native CNTF protein purified from rat sciatic nerve (protein, UniProt P20294 1-200, looked up)
Ciliary neurotrophic factor: B6 Ciliary neurotrophic factor
lowest concentration at which activity was detectable [4]: 5 pg/mL
EC50 ([4]; neuronal survival, E8 chick ciliary ganglion cultures): 0.08 ng/mL
